Results on two molecules are retold here after article PMC9585510.

Test [1] has as its target Marchantia polymorpha plant cysteine oxidase (MpPCO), with N-terminal His6-tag (Marchantia polymorpha).
For test [2], the target named is MpPCOc, Marchantia polymorpha plant cysteine oxidase with the N-terminal His6-tag removed (Marchantia polymorpha).

Take “AtRAP2(2-15), 14-mer peptide representing the N-terminus of the A. thaliana ERF-VIIs RAP2.2 and RAP2.12”: the KM for the peptide substrate in steady-state kinetics of Nt-Cys oxidation (LC-MS; atmospheric O2, 25 °C, 50 mM bis-tris propane, 50 mM NaCl, 1 mM TCEP, pH 8.0; fitted with substrate inhibition) in test [1] was determined as 11 μM.

For CRMNKRLGKGETGL, the KM for the peptide substrate in steady-state kinetics of Nt-Cys oxidation (LC-MS; atmospheric O2, 25 °C, 50 mM bis-tris propane, 50 mM NaCl, 1 mM TCEP, pH 8.0) in test [2] is 509 μM.
